Assay results from a protein production outcome set (Wang et al. 2014).

Assay: label from the status in PepcDB records

Sequence | protein production
MFQENRTNELVILKEIAETLNTSNDTYHVLQAVLEKLLSVTGLTTGWIFLADEDGRYTKLIDYQLPEALTYENKRPMCEGECWCLRGFVDGKLERAVNIIECKRINNAIEYNWGDTEGILHHATVPLKAGGEKFGLLNVASPGKTHFSEEELVLLQSVAFQIGTALKRAKLYENEKRRAH | failed
MFQPLLDAFIESASIEKMVSKSPPPPLKIAVANWWGDEEIKEFKKSVLYFILSQRYAITLHQNPNESSDLVFSNPLGAARKILSYQNTKRVFYTGENESPNFNLFDYAIGFDELDFNDRYLRMPLYYAHLHYEAELVNDTTAPYKLKDNSLYALKKPSHHFKENHPNLCAVVNDESDLLKRGFASFVASNANAPMRNAFYDALNSIEPVTGGGSVRNTLGYKVGNKSEFLSQYKFNLCFENSQGYGYVTEKILDAYFSHTIPIYWGSPSVAKDFNPKSFVNVHDFNNFDEAIDYIKYLHTHPNAYLDMLYENPLNTLDGKAYFYQDLSFKKILDFFKTILENDTIYHNNPFIFYRDLHEPLISIDDLRVNYDDLRVNYDDLRVNYDDLRVNYDDLRVNYDDLRVNYDDLRVNYDDLRVNYDDLRVNYDDLRVNYDRLLQNASPLLELSQNTTFKIYRKAYQKSLPLLRTIRRWVKK | failed
MFQTGGLIVFYGLLAQTMAQFGGLPVPLDQTLPLNVNPALPLSPTGLAGSLTNALSNGLLSGGLLGILENLPLLDILKPGGGTSGGLLGGLLGKVTSVIPGLNNIIDIKVTDPQLLELGLVQSPDGHRLYVTIPLGIKLQVNTPLVGASLLRLAVKLDITAEILAVRDKQERIHLVLGDCTHSPGSLQISLLDGLGPLPIQGLLDSLTGILNKVLPELVQGNVCPLVNEVLRGLDITLVHDIVNMLIHGLQFVIKV | failed
MFQYRFKRSFSSDPNLSDTIGDRLFDLMEATFPGLNDLAECGRKLGAPWEKASTPFIRFHDDVAITHVGVLEIPMVILGQRVTVGGIHGVATREEFRRRGYYREVMEEALEYCDQIYETLVLTTPEPEYYLPFGFRVVEEYIFH | failed
MFRALKDKKRFIRNLILTFIIFLFIFLLYQFEAFRDIIFIVLVSGIFAYILKPLYRFLCERTKINKNFLAMAIVLSVIFLILFFLTVLIPSMFKEGESFDGLINGIEFFINDLIMKMKFMELGIFDVIEAQVTEKLNILLVSFATSIINNLISFSENILAFAVIPVLAYYFLAYGDLLSNKFLYCCPMEKRALLKNLGRDVDKVLGKYILGQLLLSLLVGVMTFIGMLILGIKFPLLLAFLNALLNIIPYFGAVLGAIPAIVVALVEGPNKILWVILTFLIIQQIEGNLIAPKITAESIDMHPILIIILLLIGEQIGGLLGMVFIVPIAVVIKVLFDDWDYYMFL | failed
MFRCQTKGWCKSLKPKVFLEFVEIKSLIASVLPFVLGSMYAYYNYHQLHLGYLLLFFIASSLFHMATNANDNYQDFLHAPRNDDNQEFLQETNVVGVNQISIGQARTITFGLAGISLIIGLWLVTQTGLPLLWMGLYSYAVGYFYAGGPKPISQGPFGEFFSGFTMGFMIFWIAVFINTYDTAAITWQSTLAVLIASGLAIFAISNIMLANNICDMDEDIALGRHTILYYLGKPVMLQVFAWSYVAGYACLVIAVLMGVLPKFSLLTLLSIIPVWKNTRVFLHKQVKRETFTISIKNATLICLSFIVFMGLGLIFN | failed
MFRFNLCVLLFATLATLSAAQEQTPAYVGSAECRDCHTKAAEAWEGSHHAKAWTAPTAENIVADFNDTEFRHDGTLTRFRVEDGRHYITVTEKDGVTTDYPVHSVAGIEPLQQYLLETEPGRIQSFDVVWDTIKQEWFHLYPDQDLPPDDGLHWTGPYKNWNARCAECHATGFEKNYSPVTRSYSSVPVEIGVGCEACHGPGSAHIAWATGKSLEEPLTGLSEYRLTIDYDAGTETVLQQCASCHSRREAHFDGNPVPGIPFNDAYALALLRPGAYHADGQILDEVYVYGSFLQSKMYQQGVSCSNCHEVHSAELKAEGNGVCTQCHSPAGNPSFTTLDSKNYDDPSHHYHEAGTEGAQCKSCHMIERVYMGVDGRRDHSFRIPRPDISLETDSPNACTDCHSDQSSAWAAAAIEEWYPDSENRGLHYGQVLAAGRANAVAARVPLTDLAGDTTQPGIARATALWLLEQSGDATLGAELSSMLTDTDPLVRAAAASAHGLFPPAERAAALEPALDDPRRMVRIAAGKTLLDVPRSALTPSASERLGAALREWQAGLLNRADFPETHIILAGTALTMRNFEGAERAFREVVLMDPQREEAWVMLVRIADAMRGPQAAAQVLDEALQAVPGSDTLNSMRSESLLPPQ | failed
